Test results published in PMC4899731.

Biological target: F-actin (filamentous actin) of the Actin Binding Protein Biochem Kit (BK013, Cytoskeleton) (UniProt P60709)
Test: co-sedimentation; F-actin spin-down assay with the Actin Binding Protein Biochem Kit (BK013, Cytoskeleton), according to manufacturer instructions; ultracentrifugation, SDS-PAGE, Coomassie staining, signals quantified

percent detected in the pellet with F-actin: 37%
Substance: cyclin A2-GST (glutathione S-transferase) (from UniProt P20248 1-432) (natural protein)
